Measurements: the nanobody polyreactivity screen of Harvey et al. (2022)

Experiment: yeast display, Sf9 membrane polyspecificity reagent, FACS + sequencing; frameworks hold sequencing errors
Procedure, shortened: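 Galactose-induced (36–48 hours) yeast carrying a synthetic nanobody display library were exposed to 10% biotinylated, detergent-solubilized Sf9 membrane reagent at 4 °C for 1 hour. FACS followed streptavidin microbead enrichment, using low and high (top ~1%) gates for expression (anti-HA) and reagent binding (streptavidin). Colony PCR, MiSeq 2 × 250 sequencing and CDR-length filtering followed. Labels for polyreactivity reflect the gate of origin.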

Sequence	polyreactivity (PSR sort gate)
QVQLVESGGGLVQAGGSLRLTCAASGRILLVNAMGWSRQAPGKERELVAAITSGGSTNYADSVKGRFTISRDNAKNTVYFQMNSLKPEDTAVYFCAATITLYRSRGRYGYWGQGTQVTASS	high polyreactivity
QVQLVESGGGLVQAGGSLRLTCAASGRILTCYAMGWYRQEPGKERELVASINWRGGSTYYADSVKGRFTISRDNAKNTVYLQMNSLKPEDTAGYYCARYKYTRQTRVEYGYWGQGTQVTVSS	high polyreactivity
QVQLVESGGGLVQAGGSLRLTCAASGRILVSYSMGWYRQAPGKERELVAAISRSGGSTYYADSVKGRFTISRDNAKNTVYLQMNSLKPEDTAVYYWNVYRFSRYDYWGQGTQVTVSS	high polyreactivity
QVQLVESGGGLVQAGGSLRLTCAASGRSFRRYAMGWYREAPGKERELVAAITWRGSSTYYADSVKGRFTISRDNAKNTVYLQMNSLKPEDTAVYYCAADIGYTYEYYYWGQGTQVTLSS	high polyreactivity
QVQLVESGGGLVQAGGSLRLTCAASGRTFIVYAMGWYRQAPGKERELVAGITRGSTNYADSVKGRFTISRDNAKNTVYLQMNSLKPEDTAVYYCATEVYIWPWGTVYAFEYDYWGQGTQVTVSS	high polyreactivity
QVQLVESGGGLVQAGGSLRLTCAASGRTFNPYAMGWYRQAPGKERELVARIRGTGVSTYYADSVKGRFTISRDYAKNTVYLQMNSLKPEDTDVYYINAVATPVSDRWSYLSHGWYYYWGHGTQVTVSS	high polyreactivity
QVQLVESGGGLVQAGGSLRLTCAASGRTFNVNVMGWSRQAPGKERELVAAIRYTGGSTYADSVKGRFTISRDNAKNTVYLQMNSLKPEDTAVYYCNADTFFPFDHGMDYWGQGTQVTVSS	low polyreactivity
QVQLVESGGGLVQAGGSLRLTCAASGRTFRANAMGWYRQATGKERELVAAISQRGGNTYYADSVKGRFTSSRDNAKNTVYFQMNSLKPEDTAVYYCAADITTYRRGRYEYEYWGQGTQVTVSS	high polyreactivity
QVQLVESGGGLVQAGGSLRLTCAASGRTFRPYDMGWYRQAPGKQRELVATITTNGGSTYYADSVKGRFTISRDNAMNTVYLQMTSLKPEDTAGYYCATDNSWPTYHYDGGYYWGQGTQVTVSS	low polyreactivity
QVQLVESGGGLVQAGGSLRLTCAASGRTFRSYTMGWYRQAPGKERELVAAISGSGGRTYYADYVKGRFTISRDNAKNNVYLQMNILKPEDTADYYCNKGFTDYHYYYWGQGTQVTVSS	high polyreactivity
QVQLVESGGGLVQAGGSLRLTCAASGRTFWRYGMGWYRPAPVKETELVAAITDSVDSTNYADSVKGRFTISRDNAKNTVYLQMNSLKPEDTAVYYCAASDVVFALNGYYPGEDDYWGQGTQVTVSS	low polyreactivity
QVQLVESGGGLVQAGGSLRLTCAASGRTFYFYTMGWYRQAPGKERELVATITWRGGRTYYADSVKGRFTITRDNAKNTVYLQMNSLKPEDTAVYYCNADYASYRHRMDYWGQGTQVTVSS	high polyreactivity
QVQLVESGGGLVQAGGSLRLTCAASGRTFYVYAMGWYRQAPGKERELVAAITRSGDSTYADSVKGRFTISRDNAKNTVYLQMNSLKPEDTAVYYCSKRYTHYSFRRFDYWGQGTQVTVSS	low polyreactivity
QVQLVESGGGLVQAGGSLRLTCAASGSIFAAKAMGWYRQAPGKERELVAAIRTRTGSTYYADSVKGRFTISRDNAKNTVYLEMNSLKPEDTAVYYCAADGGVPFWIHSTYYYWGQGTQVTVSS	low polyreactivity
QVQLVESGGGLVQAGGSLRLTCAASGSIFAKNAMGWYRQAPGKERELVAAIDLNGGSTYYADSVKGRFTISRDNAKNTDYLQMNSLKPEDTAVYYCAVYYGHSSVIRSSPEYDSWGQGTQVTVSS	low polyreactivity
QVQLVESGGGLVQAGGSLRLTCAASGSIFDKNVMGSYRQAPGKERELVAAISSSGGSTYYADSVKGRFTISRDIAKNTVYLQMNSLKPVDSAVYYCAKVPGRDRADRYWDHYSHDYWGQGTQVTVSS	high polyreactivity

Sequence	polyreactivity (PSR sort gate)
QVQLVESGGGLVQAGGSLRLTCAASGSIFDSNAMGWYRQAPGKERELVADIRGIGGSTFYADSVKWRFTISRDNAKNTVYLQMNSLKPEDTAVYYCAAVGKSPSRFGYWGQGTQVTVSS	low polyreactivity
QVQLVESGGGLVQAGGSLRLTCAASGSIFGGYGMGWYRQAPGKERELVAAITSGTSTYYADSVKGRFTISRDNAKNTVYLQMNSLKPEDTAVYYCAARPYPHSAYEGDYWGRGTQVTVSS	low polyreactivity
QVQLVESGGGLVQAGGSLRLTCAASGSIFGGYTMGWYRQAPGKERELVAAISRRGGNTYYADSVKGRFTISRDNAKYTVYLQMNSLKPEDTAVYYCNARPTTYNYDYWGQGTQVTVSS	high polyreactivity
QVQLVESGGGLVQAGGSLRLTCAASGSIFGLYAMGWYRHAPGKERELVAAISRTGGSTYYADSVKGRFTISRDNAKNTVYLQMNSLKPEDTAVYSCNAVYFRYRYNYWGQGTQVTVSS	high polyreactivity
QVQLVESGGGLVQAGGSLRLTCAASGSIFGVYTMGWYRQAPGKERELVAAITSAGSTYADSVKGRFTISRDNAKNTVYLQMNSLNPEDTEVYYCNAQSFLLSLRVELREPHEYWGQGTQVTVSS	low polyreactivity
QVQLVESGGGLVQAGGSLRLTCAASGSIFNGNAMGWYRQAPGKERELVAAISNVGRTDYADSVKGRFTISRDNAKNTVYLQMNSLKPEDTAVYYCAAGVYSGYNRYFAPRSWFGYYYWGQGTQVTVSS	low polyreactivity
QVQLVESGGGLVQAGGSLRLTCAASGSIFPKNAIGWYRQAPGKERQLVAGITSRTGRTYYADSVKGRFTISRDNAENTVYLQMNSLKPEDTAVYYCAARNPSGKGRYDYWGQGSQVTVSS	high polyreactivity
QVQLVESGGGLVQAGGSLRLTCAASGSIFRSYAMGWYRQAPGNERELVAAISWRGGRTYYADSVKGRFTISRDNAKNTVYLQRNSLKPADTAVYYCAARKRAQQGTRDHDYWGQGTQVTVSS	high polyreactivity
QVQLVESGGGLVQAGGSLRLTCAASGSIFSYNAKGRYRQAPGKERELVAGITTGDSTNYADSVKGRFTISRDNAKNTVYLQMNCLKPEDTAVYYCAATRLVSYHYPDLDSQQGGYWGQGTQVTVSS	low polyreactivity
QVQLVESGGGLVQAGGSLRLTCAASGSIFTKYAMGWYRQAPGKERELVAGISSSGCSTYYADSVKGRFTISRDYAKNTVYLQMNSLKPEDTAVYYCAARGYYKYDYWGQGTQVTVSS	high polyreactivity
QVQLVESGGGLVQAGGSLRLTCAASGSIFVGYAMGWYREAPGKEMELVAAITTRGDTTYYADSVKGRFTISRDNAKNTVYLQMNSLKPEHTAVYYCNTTSFFQAWPSDVQYDYWGQGTQVTVSS	low polyreactivity
QVQLVESGGGLVQAGGSLRLTCAASGSIFYAYAMGWYRQAPGKERELVAGITFSDDSTYYADSVKGRFTISRDNAKNTVYLQMNSLKPEDTAVYYCAADTISWYGNYYYWGQGTQVTVSS	high polyreactivity
QVQLVESGGGLVQAGGSLRLTCAASGSIFYTNAMGWYRQAPGKERELVAAIRWSGGRTYYADSVKGRFTISRDNAKNTVYLQMNSLKPEDTAVYYCTVVVRYPSAYAYWGQGTQVTLSS	high polyreactivity
QVQLVESGGGLVQAGGSLRLTCAASGSIIVTYAMGWYRQAPGKERELVAVINSGTSTNYADSVKGRFTISRDNAKNTVYLQMNSLKPEDTAVYYCNADPLVYYYQDYRFCMGYWGQGTQVTVSS	low polyreactivity
QVQLVESGGGLVQAGGSLRLTCAASGSILDSNAMGWYRQAPGKERELVSAITSGGSTYYADSVKGRFTISRDNAKNTVYLQMNSLKPEDTAVYYCAAAYLGYGAVQPSYEGGYWGQGTQVTVSS	low polyreactivity
